According to patent US20240425607A1, “IL-18BP ANTAGONIST ANTIBODIES AND THEIR USE IN MONOTHERAPY AND COMBINATION THERAPY IN THE TREATMENT OF CANCER” (Compugen Ltd., priority 2023, published 2024):

Legend:
[1] = Fab Tm by dynamic scanning fluorimetry (DSF); format: physicochemical; details: optimized antibodies
Protocol: 10 μL of 20× Sypro Orange is added to 20 μL of 0.2-1 mg/mL mAb or Fab solution. A RT-PCR instrument (BioRad CFX96 RT PCR) is used to ramp the sample plate temperature from 40 to 95° C. at 0.5° C. increment, with 2 min equilibrate at each temperature. The negative of first derivative for the raw data is used to extract Tm.

SEC-HPLC % monomer = format: physicochemical; details: optimized antibodies
Protocol: A TSKgel SuperSW mAb HTP column (22855) was used for fast SEC analysis of mammalian produced mAbs at 0.4 mL/min with a cycle time of 6 min/run. 200 mM Sodium Phosphate and 250 mM Sodium Chloride was used as the mobile phase.

[2] = target: T1, human IL18BP-Fc binding to human IL-18 (Homo sapiens, UniProt O95998); test: Blocking of hIL18BP-hIL-18 interaction by ELISA, IL18BP plate bound; details: 1 ng/ml human IL-18, compared with clone W19089C
T1 sequence (O95998 31-194): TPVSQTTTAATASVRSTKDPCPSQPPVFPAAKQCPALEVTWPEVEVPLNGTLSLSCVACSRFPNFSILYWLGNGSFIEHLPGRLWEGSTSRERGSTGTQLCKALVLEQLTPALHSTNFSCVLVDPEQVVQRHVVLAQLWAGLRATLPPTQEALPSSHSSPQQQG
Protocol: This assay was utilized to identify anti-human IL18BP Abs that inhibit the binding interaction between human IL18BP- and its counterpart, human IL-18. […] Human IL18BP-Fc protein was coated on the wells of a high binding plate overnight at 4° C. (1 μg/ml, 100 μl/well volume). Plates were washed three times with PBS-T buffer (1×PBS pH 7.4, 0.05% Tween20) incubated with 250 μL blocking buffer (2.5% skim milk in PBS) at room temperature (RT) for 2 hr. Blocking buffer was removed and plates were washed three times with PBS-T buffer. Plate-bound ligands were incubated with anti-human IL18BP Abs in 1% BSA in PBS buffer two times serially diluted (2.5-0.019 μg/ml, 100 μL/well volume) at RT for 1 h. Plates were washed one time with PBS. Plate-bound ligands were incubated with human IL-18 (cat. 9124-IL, R&D) in 1% BSA in PBS buffer (1 ng/ml, 100 μL/well volume) at RT for 1 h. Plates were washed three times with PBS-T (0.05% Tween20 in PBS). Biotinylated anti-IL18 detection antibody, cat. D045-6, R&D 1:1000 in 1% BSA in PBS buffer was added (100 μL/well). This was incubated at RT for 1 hr, and plates were washed again. Peroxidase Streptavidin, Jackson, cat. 016-030-084 1:1000 in 2.5% skim milk in PBS was added (100 μL/well) for 1 hr at RT. […] The HRP reaction was stopped by adding 50 μL 1N HCl and absorbance signals at 450 nm were read on a luminescence Reader-EnSpire (Perkin Elmar). […]

[3] = target: T2, recombinant human IL18-BP (Homo sapiens, UniProt O95998); test: MEL624:TIL assay; format: cell-based; details: rhIL-18 30 ng/ml + rhIL-18BP 1 μg/ml, vs isotype control
T2 construct: purchased R&D systems 119-BP
T2 sequence (O95998 31-194): T1 sequence (O95998 31-194)
Protocol: Human MEL624 cells were thawed and grown in DMEM with 10% FBS, 1% Glutamax, 1% Penicillin-Streptomycin Solution and 1% HEPES buffer. The cells were then seeded at 75 k cells/well in a 96 well plate in the assay medium (IMDM with 10% human serum, 1% Glutamax, 1% MEM eagle, 1% Sodium Pyruvate and 1% Penicillin-Streptomycin Solution) and incubated 1 hour in 37° C., 5% CO2 incubator before co-culture with human tumor infiltrating lymphocytes that were previously expanded using known melanoma antigens (TILs). Human TILs were thawed in full TIL media and 75 k cells/well were co-cultured with the MEL624 cells to create an effector: target ratio of 1:1. The co-cultured cells were then treated with rhIL-18 (30 ng/ml) and rhIL-18BP (1 μg/ml) for 30 min in 37° C., 5% CO2 incubator to allow IL-18:IL-18BP complex formation. After 30 minutes, anti-human IL-18BP mAb (ADI-71722, dose titration, 30 μg/ml-0.01 μg/ml, dilution factor of 1:3) or relevant isotype control (hIgG1 30 μg/ml) were added to the co-culture to examine its capability to restore IL-18 activity. Cells and all added solutions were prepared in full assay medium to a final volume of 200 μl/well. Plates were incubated for 24 hours in 37° C., 5% CO2 incubator, after which the supernatant was collected for cytokine secretion evaluation. All tests were done in triplicates and each repeated with TIL four donors. […]

[4] = tested on: MEL624 cells co-cultured with human TILs; test: Killing of MEL624 melanoma cells by human TILs (IncuCyte); format: cell-based; details: 10 μg/ml; rhIL-18 50 ng/ml + rhIL-18BP 1 μg/ml; 72 hours
Protocol: The co-culture was monitored for 72 hours using an IncuCyte live cell imaging instrument. […] In the presence of the isotype control antibody (black), IL-18BP abrogated the effects of IL-18, while the anti-IL-18BP antibody (turquoise) was able to completely restore these effects.

endogenous IL-18BP = target: T3, endogenous IL-18BP (Homo sapiens, UniProt O95998); test: TIL:MEL624 co-culture with endogenous IL-18BP levels; format: cell-based; details: 5 μg/ml; IL-18 3.7 ng/ml, no added IL-18BP; 18 hours; vs isotype
T3 construct: endogenous in cells; host or cells: MEL624 cells and human TILs
T3 sequence (O95998 31-194): T1 sequence (O95998 31-194)
Protocol: A. Schematic representation of assay setup. MEL624 cells were co-cultured with human TILs that were previously enriched for MART1 or gp100 peptide-specific clones. […] The co-culture was set for 18 hours following which IFNg levels were measured in supernatants. […] Representative examples from two TIL donors are shown.

B1: ADI-71739: anti-IL18-BP antibody, sequences in FIG. 2K; 66716 lineage (antibody, V domains shown)
VH: QLQLQESGPGLVKPSETLSLTCTVSGGSISSPDYPWGWIRQPPGKGLEWIGSIYYQGATYYNPSLKSRVTISVDTSKNQFSLKLSSVTAADTAVYYCARGPYRQLFDYWGQGTLVTVSS
VL: DIQMTQSPSSVSASVGDRVTITCRASQGISSWLAWYQQKPGKAPKLLIYAASSLQSGVPSRFSGSGSGTDFTLTISSLQPEDFATYYCQQGSVFPYTFGGGTKVEIK
Fab Tm (DSF, ° C.) [1]: 73.0 °C
SEC-HPLC, % monomer (SEC-HPLC % monomer): 94.9%
Blocking effect on binding of human IL18BP to human IL-18 [2]: superior to Biolegend Ab
IFNγ secretion from TILs [3]: increase IFNγ secretion from TILs
Killing of melanoma cells by tumor infiltrating lymphocytes [4]: increased killing of melanoma cells
IFNg release by tumor infiltrating lymphocytes (endogenous IL-18BP): increased IFNg release
